B1: PPP2R2B (parent)
chain: PSNRSFFSEIISSISDVKFSHSGR

Variants of: B1
Assay: protein stability index of a GFP-peptide fusion (GPS, HEK-293T) (PSI 1-6); higher = more stable
Conditions: c terminus: a fixed tail appended
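Further: lentivirally expressed fusions sorted by FACS into six bins by GFP to DsRed ratio, PSI derived from sequencing read proportions per bin multiplied by bin number.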

Protein stability index of substitutions, site by site:
F7: M 2.79 | H 3.32 | I 2.87 | C 2.83 | K 3.26 | R 3.32 | P 2.87 | S 4.24 | E 3.69 | L 2.25 | V 2.24
S12: I 3.11 | E 2.57 | V 1.82 | C 2.06 | Q 2.33
P1: E 2.42 | L 2.19 | K 2.56 | V 1.72 | M 2.24 | N 2.42 | Q 2.4 | I 2.02
N3: G 2.19 | A 2.27 | Q 2.4 | D 2.32 | R 2.35
I11: A 3.34 | L 2.3 | D 3.46 | S 3.2
K18: S 2.61 | M 2.02 | Y 1.97 | E 2.35 | C 1.94 | P 2.23
H21: Y 1.97 | P 2.67 | I 2.13 | A 2.7 | E 2.87 | M 2.41 | V 2.04 | R 3.27
G23: M 2.25 | Q 2.24 | W 2.09 | R 2.54 | N 2.79 | L 2.08 | D 2.72 | Y 2.27 | A 2.31
S20: K 2.7 | C 2.12 | D 2.88 | R 1.94 | P 2.48
F19: V 2.5 | Y 2.57 | M 2.88 | G 2.86 | K 3.02 | S 3.3 | P 3 | D 3.52 | R 2.99
D16: V 2.17 | T 2.28 | E 2.28 | Q 2.42 | R 2.15 | G 2.29 | I 1.74 | L 2.05
S13: P 2.99 | V 1.99 | A 1.87 | G 2.37 | L 2.45
V17: F 2.18 | D 3.18 | R 2.31 | G 2.53 | E 3.05
S8: V 1.52 | W 1.98 | E 2.57 | T 2.62 | L 2.04 | G 2.41 | A 1.91 | K 2.36 | I 2.84
S22: Y 2.2 | P 2.38 | W 1.9 | I 2.11 | K 2.64 | R 2.71 | V 2.06 | M 2.27 | G 2.57 | N 2.58
S5: Q 2.42 | W 2.1 | N 2.36 | V 1.96 | R 2.64 | M 2.65 | I 1.91 | D 2.46 | K 2.17 | A 2.31
S15: N 2.77 | P 2.85 | V 2.27 | E 2.93
S2: D 2.85 | F 1.99 | H 2.44 | C 2.4 | K 1.92 | E 2.55 | T 2.44
E9: I 3.63 | Y 1.95 | G 2.64 | M 1.47 | P 2.45 | A 2.12 | L 2.58
R4: G 3.02 | P 2.8 | D 3.49 | C 1.83
F6: R 3.02 | M 2.76 | S 3.07 | W 2.32 | N 2.9 | V 2.66 | A 3.05 | I 2.81
I10: R 2.79 | A 3.33 | F 2.43 | Q 3.06 | H 2.98 | M 2.62
I14: F 2.17 | S 3.19 | V 2.81 | Q 3.18
R24: L 1.75 | Q 2.39 | S 3.12 | A 2.36 | N 2.81 | W 1.98 | H 1.94 | T 2.33 | Y 3.23 | F 1.65

From the supplement of paper PMC10567573
